The record followed here is publication PMC4707474, “Identification of a small molecule that simultaneously suppresses virulence and antibiotic resistance of Pseudomonas aeruginosa” (Scientific Reports, 2016).

What is called IC50 is the concentration that gives 50% inhibition. Usually Km stands for the substrate concentration at which the rate is half of its maximum.

Data set [1] concerns the target T1, P. aeruginosa DHODase (PyrD, dihydroorotate dehydrogenase) (Pseudomonas aeruginosa, UniProt Q9HZF8).
T1 construct: pyrD open reading frame from PAO1 genomic DNA, in pET28a, recombinant Ni-NTA purified
Description: DCIP-based colorimetric enzyme assay, […] min preincubation, dose-response. Type of data set: biochemical.

Substrate in data set [2]: O=C1C[C@@H](C(=O)O)NC(=O)N1
Description: steady-state enzyme kinetics (Km), DCIP colorimetric assay. Type of data set: biochemical, Pseudomonas aeruginosa. Particulars: FMN.

Substrate in data set [3]: COC1=C(OC)C(=O)C(C)=CC1=O
Description: steady-state enzyme kinetics (Km) as electron acceptor, DCIP colorimetric assay. Format: biochemical, Pseudomonas aeruginosa. Particulars: FMN.

`C[C@@H](NC(=O)CSc1nnnn1-c1ccc(O)cc1)c1ccc(-c2ccccc2)cc1` [compound 14]: the IC50 in data set [1] is 41 µM.

B1: P. aeruginosa DHODase (PyrD, dihydroorotate dehydrogenase) (Pseudomonas aeruginosa PAO1) (protein)
chain: MYTLARQLLFKLSPETSHELSIDLIGAGGRLGLNRLLTPKPASLPVSVLGLEFPNPVGLAAGLDKNGDAIDGFGQLGFGFIEIGTVTPRPQPGNPRPRLFRLPQANAIINRMGFNNHGVDHLLARVRAAKYRGVLGINIGKNFDTPVERAVDDYLICLDKVYADASYVTVNVSSPNTPGLRSLQFGDSLKQLLEALRQRQEALALRHGRRVPLAIKIAPDMTDEETALVAAALVEAGMDAVIATNTTLGREGVEGLPHGDEAGGLSGAPVREKSTHTVKVLAGELGGRLPIIAAGGITEGAHAAEKIAAGASLVQIYSGFIYKGPALIREAVDAIAALPRRN
notes: pyrD open reading frame from PAO1 genomic DNA, in pET28a, recombinant Ni-NTA purified
Take B1: the Km in data set [2] worked out at 60.8 µM; in data set [3], 25.6 µM.
